In the supplement of paper PMC5998384:

What was measured:
HeLa Kyoto [1] = assay: solubility in G1/S (NP-40 vs SDS abundance) (log2 ratio); higher = more soluble; settings: cell cycle stage: G1/S
HeLa Kyoto [2] = assay: solubility change mitosis vs G1/S (difference of NP-40 vs SDS log2 ratios) (log2 ratio difference); higher = more soluble in mitosis
HeLa Kyoto [3] = assay: melting temperature (median over replicates), in situ; higher = more thermally stable
HeLa Kyoto [4] = assay: thermal stability score vs G1/S (z-score of summed log2 fold changes over temperatures); higher = more thermally stable than in G1/S
[5] = cell cycle stage: early G1 (4.5 h after nocodazole release)
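Wherever melting temperature (median over replicates), in situ is given: HeLa Kyoto cells synchronized by double thymidine or nocodazole block, proteins quantified by TMT10plex mass spectrometry, three independent biological replicates.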
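Wherever solubility change mitosis vs G1/S (difference of NP-40 vs SDS log2 ratios) is given: synchronized HeLa Kyoto cells (double thymidine block for G1/S, nocodazole release for mitosis), protein amounts in NP-40 versus SDS lysates quantified by mass spectrometry, three biological replicates.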
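Wherever solubility in G1/S (NP-40 vs SDS abundance) is given: HeLa Kyoto cells arrested at G1/S by double thymidine block, proteins quantified by TMT10plex mass spectrometry in mild NP-40 versus SDS extracts, three biological replicates.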
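Wherever thermal stability score vs G1/S (z-score of summed log2 fold changes over temperatures) is given: synchronized HeLa Kyoto cells, proteins quantified by TMT10plex mass spectrometry, three biological replicates, mitosis taken 0.5 h after nocodazole release, G1/S directly after double thymidine block.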

Chain of OCRL (chain, as listed by the source): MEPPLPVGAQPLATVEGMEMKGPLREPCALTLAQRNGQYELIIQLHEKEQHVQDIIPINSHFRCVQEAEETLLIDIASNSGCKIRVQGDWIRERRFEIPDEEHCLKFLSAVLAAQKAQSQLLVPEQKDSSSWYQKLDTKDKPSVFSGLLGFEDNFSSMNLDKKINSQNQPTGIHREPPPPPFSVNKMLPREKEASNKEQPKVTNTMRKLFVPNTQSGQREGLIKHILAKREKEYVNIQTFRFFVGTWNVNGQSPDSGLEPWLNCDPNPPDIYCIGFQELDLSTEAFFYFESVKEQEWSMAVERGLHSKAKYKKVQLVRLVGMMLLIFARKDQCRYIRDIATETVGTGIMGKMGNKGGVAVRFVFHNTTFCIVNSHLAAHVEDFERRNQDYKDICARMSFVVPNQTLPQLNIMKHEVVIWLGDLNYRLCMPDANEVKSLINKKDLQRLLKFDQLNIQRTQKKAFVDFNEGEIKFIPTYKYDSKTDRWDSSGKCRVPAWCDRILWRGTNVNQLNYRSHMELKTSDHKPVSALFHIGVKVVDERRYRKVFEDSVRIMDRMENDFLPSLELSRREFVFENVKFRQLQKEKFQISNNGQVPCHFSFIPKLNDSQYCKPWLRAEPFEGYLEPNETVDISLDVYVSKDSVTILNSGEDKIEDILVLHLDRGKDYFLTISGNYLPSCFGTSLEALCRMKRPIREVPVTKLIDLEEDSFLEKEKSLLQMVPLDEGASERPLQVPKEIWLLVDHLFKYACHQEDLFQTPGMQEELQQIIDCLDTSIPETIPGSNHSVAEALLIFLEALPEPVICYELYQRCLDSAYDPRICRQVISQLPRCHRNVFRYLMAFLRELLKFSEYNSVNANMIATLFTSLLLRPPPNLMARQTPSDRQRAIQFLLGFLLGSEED
Chain of PRRC2B (chain, as listed by the source): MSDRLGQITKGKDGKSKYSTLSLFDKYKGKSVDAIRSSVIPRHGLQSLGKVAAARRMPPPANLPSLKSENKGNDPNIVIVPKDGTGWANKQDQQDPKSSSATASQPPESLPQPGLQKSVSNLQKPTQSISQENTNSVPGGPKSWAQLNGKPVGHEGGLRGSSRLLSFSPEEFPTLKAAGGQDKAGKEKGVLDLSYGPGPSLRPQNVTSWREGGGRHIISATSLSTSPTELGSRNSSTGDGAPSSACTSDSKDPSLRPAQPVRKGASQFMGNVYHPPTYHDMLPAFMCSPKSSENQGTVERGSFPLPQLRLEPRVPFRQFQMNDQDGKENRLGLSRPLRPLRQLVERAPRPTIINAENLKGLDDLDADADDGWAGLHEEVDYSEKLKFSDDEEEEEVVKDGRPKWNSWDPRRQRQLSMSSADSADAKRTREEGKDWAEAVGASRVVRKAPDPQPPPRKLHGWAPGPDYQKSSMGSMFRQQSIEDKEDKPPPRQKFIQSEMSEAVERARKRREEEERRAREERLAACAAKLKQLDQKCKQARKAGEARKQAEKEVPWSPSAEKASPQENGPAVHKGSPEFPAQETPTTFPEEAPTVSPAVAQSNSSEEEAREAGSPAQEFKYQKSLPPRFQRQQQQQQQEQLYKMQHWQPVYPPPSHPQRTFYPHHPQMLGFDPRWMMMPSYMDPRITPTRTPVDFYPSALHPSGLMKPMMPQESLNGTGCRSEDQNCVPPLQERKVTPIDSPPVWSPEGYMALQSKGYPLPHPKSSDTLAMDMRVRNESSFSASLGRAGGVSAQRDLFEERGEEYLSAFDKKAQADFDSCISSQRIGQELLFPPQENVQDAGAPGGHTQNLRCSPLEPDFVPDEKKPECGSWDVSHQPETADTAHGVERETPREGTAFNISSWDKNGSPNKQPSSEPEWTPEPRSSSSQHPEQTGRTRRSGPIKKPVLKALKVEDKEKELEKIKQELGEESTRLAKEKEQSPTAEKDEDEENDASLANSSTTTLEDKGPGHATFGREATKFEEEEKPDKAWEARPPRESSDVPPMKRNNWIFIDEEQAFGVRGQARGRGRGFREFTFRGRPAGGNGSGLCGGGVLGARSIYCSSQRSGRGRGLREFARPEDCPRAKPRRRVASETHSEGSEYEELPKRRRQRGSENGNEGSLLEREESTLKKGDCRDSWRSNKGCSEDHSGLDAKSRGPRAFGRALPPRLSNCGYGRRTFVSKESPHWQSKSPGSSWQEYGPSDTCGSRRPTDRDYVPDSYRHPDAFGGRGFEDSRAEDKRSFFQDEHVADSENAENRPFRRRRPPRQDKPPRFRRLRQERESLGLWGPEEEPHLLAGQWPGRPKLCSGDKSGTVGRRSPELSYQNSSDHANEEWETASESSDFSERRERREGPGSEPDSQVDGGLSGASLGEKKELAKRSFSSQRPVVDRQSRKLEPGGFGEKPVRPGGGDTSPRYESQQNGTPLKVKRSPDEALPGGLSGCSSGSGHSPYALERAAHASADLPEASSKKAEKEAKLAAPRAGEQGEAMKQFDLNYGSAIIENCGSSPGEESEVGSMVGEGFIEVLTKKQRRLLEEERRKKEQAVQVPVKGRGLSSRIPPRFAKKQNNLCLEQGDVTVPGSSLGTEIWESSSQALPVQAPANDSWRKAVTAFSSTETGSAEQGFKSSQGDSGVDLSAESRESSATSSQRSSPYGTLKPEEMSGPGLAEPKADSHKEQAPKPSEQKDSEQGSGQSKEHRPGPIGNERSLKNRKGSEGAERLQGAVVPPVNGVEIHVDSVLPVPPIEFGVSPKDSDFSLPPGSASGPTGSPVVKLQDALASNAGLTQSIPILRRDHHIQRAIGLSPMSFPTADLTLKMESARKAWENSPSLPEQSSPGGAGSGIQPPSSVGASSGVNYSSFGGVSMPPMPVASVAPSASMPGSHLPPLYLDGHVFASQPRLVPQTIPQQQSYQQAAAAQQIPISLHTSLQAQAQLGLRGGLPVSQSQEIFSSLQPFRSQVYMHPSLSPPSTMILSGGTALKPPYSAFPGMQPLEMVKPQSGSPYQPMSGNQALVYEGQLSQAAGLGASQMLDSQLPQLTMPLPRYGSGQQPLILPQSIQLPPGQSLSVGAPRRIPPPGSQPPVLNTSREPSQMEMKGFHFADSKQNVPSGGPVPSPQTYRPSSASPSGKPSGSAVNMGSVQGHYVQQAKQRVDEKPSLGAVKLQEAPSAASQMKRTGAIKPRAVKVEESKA
Chain of REEP5 (chain, as listed by the source): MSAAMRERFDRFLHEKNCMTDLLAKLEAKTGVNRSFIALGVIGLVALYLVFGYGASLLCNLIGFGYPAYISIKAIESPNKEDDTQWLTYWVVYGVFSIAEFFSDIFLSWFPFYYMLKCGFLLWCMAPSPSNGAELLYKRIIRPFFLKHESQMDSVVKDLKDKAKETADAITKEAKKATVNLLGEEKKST
Chain of RHOB (chain, as listed by the source): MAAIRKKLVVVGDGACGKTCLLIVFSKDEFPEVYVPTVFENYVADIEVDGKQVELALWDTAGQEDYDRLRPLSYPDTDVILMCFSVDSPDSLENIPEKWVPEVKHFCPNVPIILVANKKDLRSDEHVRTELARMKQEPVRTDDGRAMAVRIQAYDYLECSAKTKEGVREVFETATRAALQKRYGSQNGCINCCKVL
Chain of PPP2R5D (chain, as listed by the source): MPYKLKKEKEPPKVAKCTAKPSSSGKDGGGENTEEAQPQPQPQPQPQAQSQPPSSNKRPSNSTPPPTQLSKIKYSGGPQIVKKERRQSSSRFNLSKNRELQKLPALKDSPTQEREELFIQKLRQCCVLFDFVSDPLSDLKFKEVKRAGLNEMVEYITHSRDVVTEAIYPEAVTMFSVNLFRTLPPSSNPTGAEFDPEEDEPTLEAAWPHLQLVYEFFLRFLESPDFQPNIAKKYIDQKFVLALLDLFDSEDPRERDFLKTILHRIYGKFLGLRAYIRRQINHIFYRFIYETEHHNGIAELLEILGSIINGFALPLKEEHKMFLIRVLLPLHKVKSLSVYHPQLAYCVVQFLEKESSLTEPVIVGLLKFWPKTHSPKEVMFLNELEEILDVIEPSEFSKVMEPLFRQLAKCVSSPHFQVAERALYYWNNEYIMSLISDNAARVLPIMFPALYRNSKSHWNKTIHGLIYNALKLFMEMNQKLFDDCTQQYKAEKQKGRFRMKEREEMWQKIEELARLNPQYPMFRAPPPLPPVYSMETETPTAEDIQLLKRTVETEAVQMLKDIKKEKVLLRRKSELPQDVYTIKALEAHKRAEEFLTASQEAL
Chain of PPP2R5E (chain, as listed by the source): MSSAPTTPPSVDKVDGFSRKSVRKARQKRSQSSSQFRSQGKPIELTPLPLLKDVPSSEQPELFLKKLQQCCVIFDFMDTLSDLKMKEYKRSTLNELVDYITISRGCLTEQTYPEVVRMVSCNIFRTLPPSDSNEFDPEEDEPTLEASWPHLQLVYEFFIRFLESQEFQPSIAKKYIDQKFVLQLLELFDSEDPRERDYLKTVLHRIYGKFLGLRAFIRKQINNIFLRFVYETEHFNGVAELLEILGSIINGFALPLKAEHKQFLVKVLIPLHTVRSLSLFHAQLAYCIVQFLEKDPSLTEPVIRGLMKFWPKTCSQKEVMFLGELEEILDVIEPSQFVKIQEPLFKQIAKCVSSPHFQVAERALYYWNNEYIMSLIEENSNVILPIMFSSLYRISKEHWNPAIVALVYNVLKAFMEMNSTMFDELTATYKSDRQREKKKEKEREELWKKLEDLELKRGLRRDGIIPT
Chain of PSME2 (chain, as listed by the source): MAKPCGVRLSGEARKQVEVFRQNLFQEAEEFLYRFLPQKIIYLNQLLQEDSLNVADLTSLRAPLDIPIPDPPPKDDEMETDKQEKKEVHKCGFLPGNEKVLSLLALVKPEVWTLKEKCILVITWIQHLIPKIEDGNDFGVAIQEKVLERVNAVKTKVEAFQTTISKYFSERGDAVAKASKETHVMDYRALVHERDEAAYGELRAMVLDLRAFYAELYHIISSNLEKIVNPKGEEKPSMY

Row | Substance | solubility in G1/S (log2) (HeLa Kyoto [1]) | solubility change mitosis (log2) (HeLa Kyoto [2]) | melting temperature (HeLa Kyoto [3]; cell cycle stage: G1/S) [°C] | melting temperature (HeLa Kyoto [3]; cell cycle stage: mitosis) [°C] | thermal stability score (HeLa Kyoto [4]; [5]) | thermal stability score (HeLa Kyoto [4]; cell cycle stage: mitosis)
1 | MYHSLSETRHPLQPEEQEVGIDPLSSYSNKSGGDSNKNGRRTSSTLDSEGTFNSYRKEWEELFVNNNYLATIRQKGINGQLRSSRFRSICWKLFLCVLPQDKSQWISRIEELRAWYSNIKEIHITNPRKVVGQQDLMINNPLSQDEGSLWNKFFQDKELRSMIEQDVKRTFPEMQFFQQENVRKILTDVLFCYARENEQLLYKQGMHELLAPIVFVLHCDHQAFLHASESAQPSEEMKTVLNPEYLEHDAYAVFSQLMETAEPWFSTFEHDGQKGKETLMTPIPFARPQDLGPTIAIVTKVNQIQDHLLKKHDIELYMHLNRLEIAPQIYGLRWVRLLFGREFPLQDLLVVWDALFADGLSLGLVDYIFVAMLLYIRDALISSNYQTCLGLLMHYPFIGDVHSLILKALFLRDPKRNPRPVTYQFHPNLDYYKARGADLMNKSRTNAKGAPLNINKVSNSLINFGRKLISPAMAPGSAGGPVPGGNSSSSSSVVIPTRTSAEAPSHHLQQQQQQQRLMKSESMPVQLNKGLSSKNISSSPSVESLPGGREFTGSPPSSATKKDSFFSNISRSRSHSKTMGRKESEEELEAQISFLQGQLNDLDAMCKYCAKVMDTHLVNIQDVILQENLEKEDQILVSLAGLKQIKDILKGSLRFNQSQLEAEENEQITIADNHYCSSGQGQGRGQGQSVQMSGAIKQASSETPGCTDRGNSDDFILISKDDDGSSARGSFSGQAQPLRTLRSTSGKSQAPVCSPLVFSDPLMGPASASSSNPSSSPDDDSSKDSGFTIVSPLDI [TBC1D5] | 0.207 | -0.272 | 50.7 | 50.1 | 0.296 | 0.901
2 | MYIKQVIIQGFRSYRDQTIVDPFSSKHNVIVGRNGSGKSNFFYAIQFVLSDEFSHLRPEQRLALLHEGTGPRVISAFVEIIFDNSDNRLPIDKEEVSLRRVIGAKKDQYFLDKKMVTKNDVMNLLESAGFSRSNPYYIVKQGKINQMATAPDSQRLKLLREVAGTRVYDERKEESISLMKETEGKREKINELLKYIEERLHTLEEEKEELAQYQKWDKMRRALEYTIYNQELNETRAKLDELSAKRETSGEKSRQLRDAQQDARDKMEDIERQVRELKTKISAMKEEKEQLSAERQEQIKQRTKLELKAKDLQDELAGNSEQRKRLLKERQKLLEKIEEKQKELAETEPKFNSVKEKEERGIARLAQATQERTDLYAKQGRGSQFTSKEERDKWIKKELKSLDQAINDKKRQIAAIHKDLEDTEANKEKNLEQYNKLDQDLNEVKARVEELDRKYYEVKNKKDELQSERNYLWREENAEQQALAAKREDLEKKQQLLRAATGKAILNGIDSINKVLDHFRRKGINQHVQNGYHGIVMNNFECEPAFYTCVEVTAGNRLFYHIVDSDEVSTKILMEFNKMNLPGEVTFLPLNKLDVRDTAYPETNDAIPMISKLRYNPRFDKAFKHVFGKTLICRSMEVSTQLARAFTMDCITLEGDQVSHRGALTGGYYDTRKSRLELQKDVRKAEEELGELEAKLNENLRRNIERINNEIDQLMNQMQQIETQQRKFKASRDSILSEMKMLKEKRQQSEKTFMPKQRSLQSLEASLHAMESTRESLKAELGTDLLSQLSLEDQKRVDALNDEIRQLQQENRQLLNERIKLEGIITRVETYLNENLRKRLDQVEQELNELRETEGGTVLTATTSELEAINKRVKDTMARSEDLDNSIDKTEAGIKELQKSMERWKNMEKEHMDAINHDTKELEKMTNRQGMLLKKKEECMKKIRELGSLPQEAFEKYQTLSLKQLFRKLEQCNTELKKYSHVNKKALDQFVNFSEQKEKLIKRQEELDRGYKSIMELMNVLELRKYEAIQLTFKQVSKNFSEVFQKLVPGGKATLVMKKGDVEGSQSQDEGEGSGESERGSGSQSSVPSVDQFTGVGIRVSFTGKQGEMREMQQLSGGQKSLVALALIFAIQKCDPAPFYLFDEIDQALDAQHRKAVSDMIMELAVHAQFITTTFRPELLESADKFYGVKFRNKVSHIDVITAEMAKDFVEDDTTHG [SMC3] | -0.182 | -0.0245 | 52.6 | 51.5 | -0.978 | -1.78
3 | MYO9B | -0.141 | 0.00466 | 50.4 | 49.6 | -0.189 | -0.197
4 | MYOF | -0.326 | -0.129 | 53.8 | 53.4 | -1.57 | -1.2
5 | MYTFVVRDENSSVYAEVSRLLLATGHWKRLRRDNPRFNLMLGERNRLPFGRLGHEPGLVQLVNYYRGADKLCRKASLVKLIKTSPELAESCTWFPESYVIYPTNLKTPVAPAQNGIQPPISNSRTDEREFFLASYNRKKEDGEGNVWIAKSSAGAKGEGILISSEASELLDFIDNQGQVHVIQKYLEHPLLLEPGHRKFDIRSWVLVDHQYNIYLYREGVLRTASEPYHVDNFQDKTCHLTNHCIQKEYSKNYGKYEEGNEMFFKEFNQYLTSALNITLESSILLQIKHIIRNCLLSVEPAISTKHLPYQSFQLFGFDFMVDEELKVWLIEVNGAPACAQKLYAELCQGIVDIAISSVFPPPDVEQPQTQPAAFIKL [TTL] | 0.146 | -0.197 | 53.9 | 53.4 | 0.614 | -0.119
6 | NCAPD3 | -0.316 | -0.0894 | 48.4 | 49.8 | 0.362 | 0.667
7 | NFAT5 | -0.0162 | -0.176 | 50 | 50.6 | 0.898 | 1.21
8 | NUP98 | -0.162 | 0.26 | 48.4 | 48.6 | -1.52 | -1.57
9 | NUP188 | -0.299 | -0.108 | 51 | 49 | -2.04 | -2.93
10 | OCRL | -0.137 | -0.122 | 51.4 | 51.8 | -0.419 | -0.472
11 | OLA1 | 0.346 | -0.109 | 51.3 | 51.2 | 1.23 | 0.644
12 | PIEZO1 | -0.227 | -0.0922 | 57.1 | 56.5 | -1.8 | -2.23
13 | PIK3C2B | -0.164 | -0.142 | 50.1 | 49.7 | -0.0552 | -0.413
14 | PKN1 | 0.0374 | -0.112 | 49.9 | 50.6 | 0.284 | 0.47
15 | PLXNA1 | -0.0498 | 0.0188 | 53.8 | 52.5 | -1.69 | -1.65
16 | PPP2R5D | -0.0693 | 0.0185 | 48.2 | 48.4 | 1.54 | 3.42
17 | PPP2R5E | -0.065 | -0.171 | 49.9 | 49.7 | 0.446 | 0.409
18 | PROSC | 0.225 | -0.0262 | 48.8 | 49.7 | 1.09 | 0.951

Row | Substance | solubility in G1/S (log2) (HeLa Kyoto [1]) | solubility change mitosis (log2) (HeLa Kyoto [2]) | melting temperature (HeLa Kyoto [3]; cell cycle stage: G1/S) [°C] | melting temperature (HeLa Kyoto [3]; cell cycle stage: mitosis) [°C] | thermal stability score (HeLa Kyoto [4]; [5]) | thermal stability score (HeLa Kyoto [4]; cell cycle stage: mitosis)
19 | PRRC2B | -0.236 | 0.078 | 51.9 | 52.2 | 1.22 | 3.15
20 | PSIP1 | 0.071 | 0.557 | 50.8 | 52.2 | -1.03 | -2.11
21 | PSME2 | 0.142 | 0.0782 | 52.8 | 53.8 | -0.487 | 2.4
22 | PSME4 | -0.391 | -0.0943 | 52.1 | 52.2 | -0.516 | -0.817
23 | PTPN23 | 0.216 | -0.134 | 49.6 | 49.2 | -1.39 | -2.28
24 | RAB1A | 0.166 | -0.093 | 60.3 | 60.6 | -1.51 | -4.28
25 | RAB1B | 0.0965 | -0.0321 | 57.8 | 58 | -0.394 | -2.04
26 | RAB35 | -0.0302 | 0.0226 | 56.3 | 56.2 | -0.529 | -1.17
27 | RB1CC1 | -0.0448 | -0.219 | 51.4 | 50.2 | -0.0649 | 0.267
28 | RBBP6 | -0.908 | 0.511 | 49 | 49.9 | -2.06 | 3.66
29 | RBPJ | -0.198 | 0.039 | 54.8 | 54.4 | 0.21 | -0.976
30 | REEP5 | -0.148 | -0.114 | 55.4 | 57.6 | -0.45 | -0.719
31 | RHOB | 0.157 | -0.114 | 57.2 | 58.2 | -0.544 | -0.587
32 | RHOT2 | -0.00866 | -0.0417 | 50.7 | 50.5 | -0.0452 | -0.352
33 | RNF213 | -0.346 | -0.11 | 49.9 | 49.8 | 0.57 | 1.78
34 | ROBO1 | 0.177 | -0.145 | 55.3 | 54.4 | -4.69 | -6.19
35 | RPE | 0.306 | 0.356 | 56 | 55.2 | -0.485 | -1.28
36 | RPIA | 0.208 | -0.157 | 56.4 | 55.2 | -0.283 | -2.14
